The results in this text go back to US20240376204A1 (JIANGSU HENGRUI PHARMACEUTICALS, published 2024).

Where a chain is given by its changes, count along the chain named. Names may count otherwise.

In general, EC50 refers to the concentration needed to bring the measured effect to its halfway point.

For assay [1], the target named is T1, human PD-1 expressed on cells (human, UniProt Q15116 25-288). The assay can be described thus: cell-based or functional assay.
For assay [2], the target named is T1, human PD-1 expressed on cells. The assay can be described thus: cell-based or functional assay. The source holds these as a separate data set.
The target in assay [3] is T2, his-tagged human PVRIG (h-PVRIG-his) recombinant protein (human, UniProt Q6DKI7 41-171, limits assumed).
T2 construct: Acrobiosystems; also called Human PVRIG-his; human PVRIG recombinant protein; not shown: his tag
T2 sequence (looked up): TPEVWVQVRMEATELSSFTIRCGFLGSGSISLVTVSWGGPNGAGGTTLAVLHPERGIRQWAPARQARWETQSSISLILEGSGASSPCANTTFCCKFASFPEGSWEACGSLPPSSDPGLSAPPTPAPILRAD
Briefly: ELISA, plate coated with PVRIG protein (his tag). Here is the method: (§1) ELISA assays were performed. TIGIT or PVRIG protein (his tag, Acrobiosystems, PVG-H52H4) was dissolved in PBS to 1 μg/mL, and the solution was added to a 96-well plate at 100 μL/well. The plate was coated with the antigen overnight at 4° C. The plate was washed with PBST solution three times. PBST/1% BSA solution was added, and the plate was incubated at 37° C. for 1 h for blocking. After three washes with PBST solution, different concentrations of the trispecific antibodies (diluted with PBST/1% BSA solution) were added, and the plate was incubated at 37° C. for 1.5 h. The plate was washed with PBST solution three times. […] After three washes with PBST solution, TMB solution was added at 100 μL/well. After 5 min of reaction at room temperature, 50 μL of stop solution was added. OD450 values were measured using a microplate reader, and EC₅₀ was calculated.
In general terms: In an ELISA, binding on a coated surface is turned into a signal by an enzyme label.

For assay [4], the target named is T1, human PD-1 expressed on cells. Briefly: cell-based or functional assay. The source holds these as a separate data set.
Assay [5] has as its target T3, human TIGIT recombinant protein (human, UniProt Q495A1 22-141).
T3 construct: also called human TIGIT antigen (AcroBiosystem, TIT-H52H3); TIGIT protein
T3 sequence (looked up): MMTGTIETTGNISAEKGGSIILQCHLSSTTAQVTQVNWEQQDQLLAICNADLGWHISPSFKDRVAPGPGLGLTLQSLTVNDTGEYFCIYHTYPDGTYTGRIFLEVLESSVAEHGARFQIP
Briefly: ELISA, plate coated with TIGIT protein. Here is the method: as §1

Assay [6] has as its target T4, human PVRIG expressed on cells (human, UniProt Q6DKI7 41-326).
T4 construct: whole, on cells; also called HEK293 cells expressing human PVRIG; cells overexpressing human PVRIG
T4 sequence (looked up): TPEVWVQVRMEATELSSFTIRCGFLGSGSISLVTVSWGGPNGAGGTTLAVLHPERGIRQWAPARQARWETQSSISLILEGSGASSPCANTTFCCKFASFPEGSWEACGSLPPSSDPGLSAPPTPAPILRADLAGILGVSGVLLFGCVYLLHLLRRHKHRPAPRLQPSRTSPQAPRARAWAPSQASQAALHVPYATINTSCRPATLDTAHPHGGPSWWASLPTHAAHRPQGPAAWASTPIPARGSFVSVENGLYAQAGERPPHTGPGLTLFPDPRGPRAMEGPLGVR
Briefly: FACS, HEK293F cells expressing human PVRIG. Here is the method: A stably transfected HEK293F cell strain expressing the human PVRIG gene, a stably transfected CHO-K1 cell strain expressing the human TIGIT gene, and Jurkat cells expressing human PD-1 were used. The cell strain was inoculated into a 96-well plate at 2×10⁵ cells/well. The plate was centrifuged at 300 g for 5 min, and the supernatant was removed. 100 μL of test antibody was added, and the plate was incubated at 4° C. for 1 h. The plate was centrifuged, and the supernatant was removed. The plate was washed 3 times with 200 μL of wash buffer (PBS+2% FBS), and 100 μL of an Alexa Fluor 488-labeled anti-human IgG secondary antibody (Invitrogen, A-11013) diluted at 1:500 was added. The plate was incubated at 4° C. for 1 h. The plate was centrifuged, and the supernatant was removed. The plate was washed 3 times with 200 μL of wash buffer (PBS+2% FBS). The cells were resuspended in 100 μL of PBS and tested on a flow cytometer (BD FACS Calibur or BD FACS Canto_ II).
(In general: A flow cytometer gives signals particle by particle.)

Assay [7] addresses T4, human PVRIG expressed on cells. Briefly: cell-based or functional assay.

T1 sequence (Q15116 25-288 limits assumed): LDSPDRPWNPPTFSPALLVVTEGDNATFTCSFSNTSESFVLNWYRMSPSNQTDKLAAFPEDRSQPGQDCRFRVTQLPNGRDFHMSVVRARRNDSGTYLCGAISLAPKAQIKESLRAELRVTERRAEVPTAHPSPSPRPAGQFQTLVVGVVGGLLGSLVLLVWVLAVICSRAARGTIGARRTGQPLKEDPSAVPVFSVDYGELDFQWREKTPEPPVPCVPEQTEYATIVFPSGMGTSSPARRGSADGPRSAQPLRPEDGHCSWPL

B1: A17h1-1708-151H7-C (trispecific antibody, human IgG4 S228P, kappa)
heavy: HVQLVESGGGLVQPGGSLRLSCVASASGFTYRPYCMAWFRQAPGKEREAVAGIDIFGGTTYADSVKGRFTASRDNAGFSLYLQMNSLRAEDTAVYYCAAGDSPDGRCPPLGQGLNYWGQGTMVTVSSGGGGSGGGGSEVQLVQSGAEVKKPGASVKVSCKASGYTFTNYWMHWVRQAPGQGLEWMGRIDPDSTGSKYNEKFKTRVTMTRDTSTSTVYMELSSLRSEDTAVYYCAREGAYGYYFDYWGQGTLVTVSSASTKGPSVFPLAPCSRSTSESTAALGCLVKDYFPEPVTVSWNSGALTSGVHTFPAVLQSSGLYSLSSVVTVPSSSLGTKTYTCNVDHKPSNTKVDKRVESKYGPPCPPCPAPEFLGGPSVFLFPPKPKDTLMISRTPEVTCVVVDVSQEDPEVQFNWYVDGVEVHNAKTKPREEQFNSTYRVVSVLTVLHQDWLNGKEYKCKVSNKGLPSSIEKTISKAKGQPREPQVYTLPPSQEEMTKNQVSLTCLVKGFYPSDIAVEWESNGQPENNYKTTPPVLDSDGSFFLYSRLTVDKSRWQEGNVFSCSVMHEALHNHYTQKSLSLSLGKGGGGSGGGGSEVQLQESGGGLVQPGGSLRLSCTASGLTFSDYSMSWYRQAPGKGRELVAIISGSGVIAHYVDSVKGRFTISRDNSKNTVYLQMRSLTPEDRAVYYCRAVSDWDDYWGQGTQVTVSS
light: DIQMTQSPSSLSASVGDRVTITCRASENIYSYLAWYQQKPGKSPKLLIYNARTLAEGVPSRFSGSGSGTDFTLTISSLQPEDFATYYCQYHSGSPLPFGGGTKVEIKRTVAAPSVFIFPPSDEQLKSGTASVVCLLNNFYPREAKVQWKVDNALQSGNSQESVTEQDSKDSTYSLSSTLTLSKADYEKHKVYACEVTHQGLSSPVTKSFNRGEC
notes: Type C
As to B1, in assay [1], the “DC:T MLR result, 0.1 nM antibody (unit not given)” value was 118; the “DC:T MLR result, 1 nM antibody (unit not given)” value is 136; the “DC:T MLR result, 10 nM antibody (unit not given)” value stood at 151; the “DC:T MLR result, 100 nM antibody (unit not given)” value stood at 152. The “IC50 (read off the curve)” value in assay [2] was roughly 800 pM. Also, in assay [3], the EC50 was determined as 160 pM.

B2: A17h1-1708-30H2-A (trispecific antibody, human IgG4 S228P, kappa)
heavy: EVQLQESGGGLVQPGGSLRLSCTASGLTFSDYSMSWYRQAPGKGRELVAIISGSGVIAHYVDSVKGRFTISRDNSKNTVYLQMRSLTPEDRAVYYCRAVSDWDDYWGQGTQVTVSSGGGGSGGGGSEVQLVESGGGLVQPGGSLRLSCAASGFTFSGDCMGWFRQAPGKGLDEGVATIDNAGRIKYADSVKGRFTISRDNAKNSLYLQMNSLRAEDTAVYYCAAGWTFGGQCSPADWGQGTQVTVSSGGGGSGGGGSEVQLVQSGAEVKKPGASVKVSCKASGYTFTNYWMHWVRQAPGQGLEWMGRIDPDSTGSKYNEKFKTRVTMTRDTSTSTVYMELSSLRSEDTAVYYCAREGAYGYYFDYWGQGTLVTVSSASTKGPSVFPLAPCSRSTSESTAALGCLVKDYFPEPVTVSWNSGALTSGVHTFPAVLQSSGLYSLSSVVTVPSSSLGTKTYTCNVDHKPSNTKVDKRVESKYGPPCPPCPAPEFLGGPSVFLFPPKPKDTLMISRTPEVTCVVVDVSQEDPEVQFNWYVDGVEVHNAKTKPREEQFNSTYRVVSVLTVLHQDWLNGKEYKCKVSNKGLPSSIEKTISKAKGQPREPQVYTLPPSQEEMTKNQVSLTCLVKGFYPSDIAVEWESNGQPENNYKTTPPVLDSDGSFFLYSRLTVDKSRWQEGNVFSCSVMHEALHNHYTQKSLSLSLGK
light: B1 light
In the case of B2, in assay [4], the “IC50, PD-1/PD-L1 NFAT reporter gene system” value is 801 pM. In assay [1], the “DC:T MLR result, 0.1 nM antibody (unit not given)” value turned out to be 118; the “DC:T MLR result, 1 nM antibody (unit not given)” value turned out to be 118; the “DC:T MLR result, 10 nM antibody (unit not given)” value came out at 124; the “DC:T MLR result, 100 nM antibody (unit not given)” value turned out to be 128. Moreover, in assay [5], the EC50 amounted to 87.5 pM. Besides, the EC50 in assay [3] worked out at 58.9 pM.

B3: 1708-151H7 (bispecific antibody, human IgG4 S228P, kappa)
heavy: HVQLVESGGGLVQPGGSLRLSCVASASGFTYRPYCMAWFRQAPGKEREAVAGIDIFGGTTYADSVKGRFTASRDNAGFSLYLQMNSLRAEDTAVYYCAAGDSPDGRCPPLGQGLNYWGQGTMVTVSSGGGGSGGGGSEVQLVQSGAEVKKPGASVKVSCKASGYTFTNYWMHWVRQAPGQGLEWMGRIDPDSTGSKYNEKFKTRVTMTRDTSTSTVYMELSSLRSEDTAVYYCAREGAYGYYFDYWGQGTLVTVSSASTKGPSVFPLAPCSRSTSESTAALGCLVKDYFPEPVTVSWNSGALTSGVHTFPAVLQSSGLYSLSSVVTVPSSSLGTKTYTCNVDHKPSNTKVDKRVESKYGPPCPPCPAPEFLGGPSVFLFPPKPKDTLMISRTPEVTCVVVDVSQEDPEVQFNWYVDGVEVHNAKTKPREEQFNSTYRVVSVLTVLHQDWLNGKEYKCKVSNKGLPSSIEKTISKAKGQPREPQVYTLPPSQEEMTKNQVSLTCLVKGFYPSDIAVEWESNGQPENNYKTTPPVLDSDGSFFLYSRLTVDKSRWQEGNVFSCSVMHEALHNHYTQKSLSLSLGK
light: B1 light
notes: Humanized anti-PVRIG/TIGIT
With B3, in assay [6], the EC50 was found to be 112 pM and the EMAX is 1360. Besides, the EC50 in assay [3] was determined as 125 pM.

B4: A17m0902-1708-151H7-01-C (trispecific antibody, human IgG4 S228P, kappa)
heavy: not shown
light: B1 light
notes: Type C; first residue of the 151H7 part changed from H to E; also called 151H7 H1E trispecific
In assay [6], B4 displayed an EC50 of 105 pM and an EMAX of 1550.

B5: A17h1-1708-30H2-C (trispecific antibody, human IgG4 S228P, kappa)
heavy: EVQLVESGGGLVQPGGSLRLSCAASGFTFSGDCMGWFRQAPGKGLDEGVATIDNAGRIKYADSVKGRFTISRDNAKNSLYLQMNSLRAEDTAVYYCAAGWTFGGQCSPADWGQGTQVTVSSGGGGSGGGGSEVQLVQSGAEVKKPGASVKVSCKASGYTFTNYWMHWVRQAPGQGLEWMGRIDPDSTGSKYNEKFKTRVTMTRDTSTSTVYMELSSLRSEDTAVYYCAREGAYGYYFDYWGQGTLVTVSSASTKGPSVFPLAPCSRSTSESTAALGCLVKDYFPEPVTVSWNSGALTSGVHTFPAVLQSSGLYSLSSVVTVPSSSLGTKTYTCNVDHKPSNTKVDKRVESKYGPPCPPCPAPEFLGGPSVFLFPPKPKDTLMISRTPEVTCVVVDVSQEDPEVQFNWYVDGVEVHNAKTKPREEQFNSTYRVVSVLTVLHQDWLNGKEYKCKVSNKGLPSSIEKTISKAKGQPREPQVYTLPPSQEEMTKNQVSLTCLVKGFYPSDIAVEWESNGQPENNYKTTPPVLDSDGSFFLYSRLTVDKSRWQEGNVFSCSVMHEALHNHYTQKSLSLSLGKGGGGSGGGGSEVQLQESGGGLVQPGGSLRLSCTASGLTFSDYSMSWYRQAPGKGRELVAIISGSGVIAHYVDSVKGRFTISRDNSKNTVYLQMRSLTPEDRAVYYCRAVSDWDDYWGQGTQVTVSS
light: B1 light
notes: Type C
B5: the “IC50, PD-1/PD-L1 NFAT reporter gene system” value in assay [4] was 264 pM. In addition, in assay [1], the “DC:T MLR result, 0.1 nM antibody (unit not given)” value came out at 133; the “DC:T MLR result, 1 nM antibody (unit not given)” value was 131; the “DC:T MLR result, 10 nM antibody (unit not given)” value was 123; the “DC:T MLR result, 100 nM antibody (unit not given)” value is 149. The EC50 in assay [5] turned out to be 95.1 pM. Further, the EC50 in assay [3] is 82.2 pM.

B6: 1708-30H2 (bispecific antibody, human IgG4 S228P, kappa)
heavy: not shown
light: B1 light
notes: Humanized anti-PVRIG/TIGIT
Consider B6, for which the EC50 in assay [5] came out at 116 pM; in assay [3], 84.6 pM.

B7: A17m0902-1708-151H7-02-C (trispecific antibody, human IgG4 S228P, kappa)
heavy: not shown
light: B1 light
notes: Type C; first residue of the 151H7 part changed from H to Q; also called 151H7 H1Q trispecific
In assay [6], B7 yielded a concentration giving a half-maximal response (EC50) of 96.4 pM and an EMAX of 1520.

B8: A17m0902-1708-151H7-C (trispecific antibody, human IgG4 S228P, kappa)
heavy: not shown
light: B1 light
notes: Type C; also called A17m0902-151H7-C
B8: in assay [6], a half-maximal response (EC50) required 94.4 pM and the EMAX was found to be 1520.

B9: 30H2 (Fc fusion, not shown: a dimerising Fc or GST)
chain: EVQLVESGGGLVQPGGSLRLSCAASGFTFSGDCMGWFRQAPGKGLDEGVATIDNAGRIKYADSVKGRFTISRDNAKNSLYLQMNSLRAEDTAVYYCAAGWTFGGQCSPADWGQGTQVTVSS
For B9, in assay [7], the “PVRIG reporter gene cell activity EC50” value was 176 pM.

B10: 30H3 (Fc fusion, not shown: a dimerising Fc or GST)
chain: B9 chain with F27Y, T28S, F29Y
As to B10, in assay [7], the “PVRIG reporter gene cell activity EC50” value came out at 78 pM.

B11: A17h1-1708-30H2-D (trispecific antibody, human IgG4 S228P, kappa)
heavy: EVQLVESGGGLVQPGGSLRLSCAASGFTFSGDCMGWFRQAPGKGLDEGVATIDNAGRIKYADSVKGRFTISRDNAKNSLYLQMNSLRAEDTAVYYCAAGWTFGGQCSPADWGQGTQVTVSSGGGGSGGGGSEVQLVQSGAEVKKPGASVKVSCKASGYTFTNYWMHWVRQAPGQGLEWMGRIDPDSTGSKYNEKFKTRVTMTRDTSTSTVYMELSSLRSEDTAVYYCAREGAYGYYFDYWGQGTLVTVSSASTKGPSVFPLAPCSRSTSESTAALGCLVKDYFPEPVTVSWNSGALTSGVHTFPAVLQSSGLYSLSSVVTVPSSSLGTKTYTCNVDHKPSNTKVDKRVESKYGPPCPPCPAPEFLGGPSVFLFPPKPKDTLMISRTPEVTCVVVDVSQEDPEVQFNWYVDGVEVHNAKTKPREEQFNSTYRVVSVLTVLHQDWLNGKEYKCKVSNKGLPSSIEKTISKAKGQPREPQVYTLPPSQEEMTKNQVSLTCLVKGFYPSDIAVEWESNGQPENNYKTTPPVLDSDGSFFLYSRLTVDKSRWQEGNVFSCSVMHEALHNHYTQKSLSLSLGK
light: DIQMTQSPSSLSASVGDRVTITCRASENIYSYLAWYQQKPGKSPKLLIYNARTLAEGVPSRFSGSGSGTDFTLTISSLQPEDFATYYCQYHSGSPLPFGGGTKVEIKRTVAAPSVFIFPPSDEQLKSGTASVVCLLNNFYPREAKVQWKVDNALQSGNSQESVTEQDSKDSTYSLSSTLTLSKADYEKHKVYACEVTHQGLSSPVTKSFNRGECGGGGSGGGGSEVQLQESGGGLVQPGGSLRLSCTASGLTFSDYSMSWYRQAPGKGRELVAIISGSGVIAHYVDSVKGRFTISRDNSKNTVYLQMRSLTPEDRAVYYCRAVSDWDDYWGQGTQVTVSS
For B11, in assay [4], the “IC50, PD-1/PD-L1 NFAT reporter gene system” value came to 825 pM. Besides, in assay [1], the “DC:T MLR result, 0.1 nM antibody (unit not given)” value was 115; the “DC:T MLR result, 1 nM antibody (unit not given)” value came to 116; the “DC:T MLR result, 10 nM antibody (unit not given)” value amounted to 122; the “DC:T MLR result, 100 nM antibody (unit not given)” value was 136. Further, the EC50 in assay [5] was 112 pM. Besides, the EC50 in assay [3] worked out at 88.5 pM.

B12: A17h1-1708-151H7-B (trispecific antibody, human IgG4 S228P, kappa)
heavy: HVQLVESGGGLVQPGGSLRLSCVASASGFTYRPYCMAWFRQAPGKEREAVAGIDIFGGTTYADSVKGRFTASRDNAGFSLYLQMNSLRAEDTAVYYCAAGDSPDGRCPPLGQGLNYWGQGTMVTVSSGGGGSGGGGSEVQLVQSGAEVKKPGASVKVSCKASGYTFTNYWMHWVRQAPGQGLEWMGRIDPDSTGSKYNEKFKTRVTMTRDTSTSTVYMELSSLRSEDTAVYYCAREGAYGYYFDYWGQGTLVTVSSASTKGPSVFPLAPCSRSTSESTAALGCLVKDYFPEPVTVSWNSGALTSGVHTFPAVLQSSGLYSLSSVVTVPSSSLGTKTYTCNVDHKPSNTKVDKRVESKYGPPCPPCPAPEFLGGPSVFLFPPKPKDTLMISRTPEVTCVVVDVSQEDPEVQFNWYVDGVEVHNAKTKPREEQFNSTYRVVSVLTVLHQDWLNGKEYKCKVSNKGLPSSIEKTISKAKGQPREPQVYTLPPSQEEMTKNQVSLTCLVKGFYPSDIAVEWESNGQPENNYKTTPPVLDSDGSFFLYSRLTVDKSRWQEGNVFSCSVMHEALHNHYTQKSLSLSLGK
light: EVQLQESGGGLVQPGGSLRLSCTASGLTFSDYSMSWYRQAPGKGRELVAIISGSGVIAHYVDSVKGRFTISRDNSKNTVYLQMRSLTPEDRAVYYCRAVSDWDDYWGQGTQVTVSSGGGGSGGGGSDIQMTQSPSSLSASVGDRVTITCRASENIYSYLAWYQQKPGKSPKLLIYNARTLAEGVPSRFSGSGSGTDFTLTISSLQPEDFATYYCQYHSGSPLPFGGGTKVEIKRTVAAPSVFIFPPSDEQLKSGTASVVCLLNNFYPREAKVQWKVDNALQSGNSQESVTEQDSKDSTYSLSSTLTLSKADYEKHKVYACEVTHQGLSSPVTKSFNRGEC
For B12, in assay [1], the “DC:T MLR result, 0.1 nM antibody (unit not given)” value came out at 108; the “DC:T MLR result, 1 nM antibody (unit not given)” value turned out to be 97.8; the “DC:T MLR result, 10 nM antibody (unit not given)” value worked out at 136; the “DC:T MLR result, 100 nM antibody (unit not given)” value is 148. The “IC50 (read off the curve)” value in assay [2] was roughly 400 pM. In assay [3], the EC50 stood at 154 pM.

B13: A17h1-1708-30H2-B (trispecific antibody, human IgG4 S228P, kappa)
heavy: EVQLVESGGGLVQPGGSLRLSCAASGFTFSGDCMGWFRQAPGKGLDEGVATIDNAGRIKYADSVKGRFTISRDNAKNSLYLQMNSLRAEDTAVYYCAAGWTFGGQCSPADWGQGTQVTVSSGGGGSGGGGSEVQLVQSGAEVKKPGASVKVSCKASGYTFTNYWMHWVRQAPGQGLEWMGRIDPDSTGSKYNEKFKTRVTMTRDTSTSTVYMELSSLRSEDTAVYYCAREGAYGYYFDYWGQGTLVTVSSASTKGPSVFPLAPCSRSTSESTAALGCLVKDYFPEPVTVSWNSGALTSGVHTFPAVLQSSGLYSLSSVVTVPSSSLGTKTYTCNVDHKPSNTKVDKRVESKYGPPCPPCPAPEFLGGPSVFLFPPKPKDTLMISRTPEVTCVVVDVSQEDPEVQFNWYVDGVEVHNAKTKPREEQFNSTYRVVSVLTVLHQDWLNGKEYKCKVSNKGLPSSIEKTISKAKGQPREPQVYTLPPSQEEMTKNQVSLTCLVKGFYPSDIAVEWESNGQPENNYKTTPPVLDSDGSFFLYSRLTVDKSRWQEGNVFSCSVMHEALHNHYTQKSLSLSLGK
light: B12 light
For the molecule B13, the “IC50, PD-1/PD-L1 NFAT reporter gene system” value in assay [4] came out at 344 pM. In assay [1], the “DC:T MLR result, 0.1 nM antibody (unit not given)” value was 108; the “DC:T MLR result, 1 nM antibody (unit not given)” value is 137; the “DC:T MLR result, 10 nM antibody (unit not given)” value was 125; the “DC:T MLR result, 100 nM antibody (unit not given)” value is 134. The EC50 in assay [5] is 107 pM. The EC50 in assay [3] was 58.3 pM.

B14: 151H7 (Fc fusion, not shown: a dimerising Fc or GST)
chain: HVQLVESGGGLVQPGGSLRLSCVASASGFTYRPYCMAWFRQAPGKEREAVAGIDIFGGTTYADSVKGRFTASRDNAGFSLYLQMNSLRAEDTAVYYCAAGDSPDGRCPPLGQGLNYWGQGTMVTVSS
On to B14, for which the “PVRIG reporter gene cell activity EC50” value in assay [7] was found to be 38 pM.
